Source: patent US20250188176A1

Target: canine IL-4RA (construct not given) (canine)
Assay: SPR, IL-4RA immobilised, periplasmic Fab

| Improvement over parental [fold] | RU max [RU] | koff [s⁻¹] | Binder |
| --- | --- | --- | --- |
| 2.3 | 400 | 0.000124 | FJ2246MP05A03 (Fab, V domains shown) VH: EVQLVESGGDLVKPGGSLRLSCVASGLPFRDYAMAWVRQAPGKGLQWVSLISGSGGKTYYADAVKGRFTISRDNAKNTLYLQMNSLRAEDTAVYYCAVDRLTKTIRPQYYGLWVWGQGTLVTVSS VL: DIVMTQTPLSLSVSPGETASISCRSSQSLLYSIGYNYLDWYLQKPGQSPQGLIYLGSKRASGVPDRFSGSGSGTDFTLRISRVEANDTGVYYCMQGLQSPLTFGQGTKLEIKR |
| 2.2 | 202 | 0.000127 | FJ2246MP10B02 (Fab, V domains shown) VH: EVQLVESGGDLVKPGGSLRLSCVASGFTFRDYAMTWVRQAPGKGLQWVSLISGSGGKTYYADAVKGRFTISRDNAKNTLYLQMNSLRAEDTAVYYCAVDRLTKTIRPQYYGLWVWGQGTLVTVSS VL: DIVMTQTPLSLSVSPGETASISCRSSQSLLYSIGYNYLDWYLQKPGQSPQGLIYLGSKRASGVPDRFSGSGSGTDFTLRISRVEANDTGVYYCMQGLHSPLTFGQGTKLEIK |
| 2 | 329 | 0.000142 | FJ2246MP05A04 (Fab, V domains shown) VH: EVQLVESGGDLVKPGGSLRLSCVASGLPFRDYAMTWVRQAPGKGLQWVSLISGSGGKTYYADAVKGRFTISRDNAKNTLYLQMNSLRAEDTAVYYCAVDRLTKTIRPQYYGLWVWGQGTLVTVSS VL: DIVMTQTPLSLSVSPGETASISCRSSQSLLYSIGYNYLDWYLQKPGQSPQGLIYLGSKRASGVPDRFSGSGSGTDFTLRISRVEANDTGVYYCMQGLQSPLTFGQGTKLEIKR |
| 2.2 | 252 | 0.000125 | FJ2246MP10B07 (Fab, V domains shown) VH: EVQLVESGGDLVKPGGSLRLSCVASGFTFRDYAMTWVRQAPGKGLQWVSLISGSGGKTYYADAVKGRFTISRDNAKNTLYLQMNSLRAEDTAVYYCAVDRLTKTIRPQYYGLWVWGQGTLVTVSS VL: DIVMTQTPLSLSVSPGETASISCRSSQSLLYSIGYNYLDWYLQKPGQSPQGLIYLGSKRASGVPDRFSGSGSGTDFTLRISRVEAEDTGVYYCMQGLHSPLTFGQGTKLEIK |
| 2.2 | 243 | 0.000126 | FJ2246MP10H03 (Fab, V domains shown) VH: EVQLVESGGDLVKPGGSLRLSCVASGFTFRDYAMTWVRQAPGKGLQWVSLISGSGGKTYYADAVKGRFTISRDNAKNTLYLQMNSLRAEDTAVYYCAVDRLTKTIRPQYYGLWVWGQGTLVTVSS VL: DIVMTQTPLSLSVSPGETASISCRSSQSLLYSIGYNYLDWYLQKPGQSPQGLIYLGSKRASGVPDRFSGSGSGTDFTLRISRVEAEDTGVYYCMQGLRSPLSFGQGTKLEIK |
| 2 | 283 | 0.000137 | FJ2246MP10D01 (Fab, V domains shown) VH: EVQLVESGGDLVKPGGSLRLSCVASGFTFRDYAMTWVRQAPGKGLQWVSLISGSGGKTYYADAVKGRFTISRDNAKNTLYLQMNSLRAEDTAVYYCAVDRLTKTIRPQYYGLWVWGQGTLVTVSS VL: DIVMTQTPLSLSVSPGETASISCRSSQSLLYSIGYNYLDWYLQKPGQSPQGLIYLGSKRASGVPDRFSGSGSGTDFTLRISRVEADDTGVYYCMQGLQSPLSFGQGTKLEIK |
| 2 | 344 | 0.000142 | FJ2246MP05G01 (Fab, V domains shown) VH: EVQLVESGGDLVKPGGSLRLSCVASGFPFRDFAMTWVRQAPGKGLQWVSLISGSGGKTYYADAVKGRFTISRDNAKNTLYLQMNSLRAEDTAVYYCAVDRLTKTIRPQYYGLWVWGQGTLVTVSS VL: DIVMTQTPLSLSVSPGETASISCRSSQSLLYSIGYNYLDWYLQKPGQSPQGLIYLGSKRASGVPDRFSGSGSGTDFTLRISRVEANDTGVYYCMQGLQSPLTFGQGTKLEIKR |
| 2.1 | 135 | 0.000133 | FJ2246MP06C10 (Fab, V domains shown) VH: EVQLVESGGDLVKPGGSLRLSCVASGFTFRDYAMTWVRQAPGKGLQWVSLINGSGGKTYYADAVKGRFTISRDNAKNTLYLQMNSLRAEDTAVYYCAVDRLTKTIRPQYYGLWVWGQGTLVTVSS VL: DIVMTQTPLSLSVSPGETASISCRSSQSLLYSIGYNYLDWYLQKPGQSPQGLIYLGSKRASGVPDRFSGSGSGTDFTLRISRVEANDTGVYYCMQGLQSPLTFGQGTKLEIKR |
| 2 | 251 | 0.000139 | FJ2246MP10E12 (Fab, V domains shown) VH: EVQLVESGGDLVKPGGSLRLSCVASGFTFRDYAMTWVRQAPGKGLQWVSLISGSGGKTYYADAVKGRFTISRDNAKNTLYLQMNSLRAEDTAVYYCAVDRLTKTIRPQYYGLWVWGQGTLVTVSS VL: DIVMTQTPLSLSVSPGETASISCRSSQSLLYSIGYNYLDWYLQKPGQSPQGLIYLGSKRASGVPDRFSGSGSGTDFTLRISRVEAEDTGVYYCMQGLQSPLSFGQGTKLEIK |
| 2.1 | 423 | 0.000135 | FJ2246MP07E01 (Fab, V domains shown) VH: EVQLVESGGDLVKPGGSLRLSCVASGFTFRDYAMTWVRQAPGKGLQWVSLISGSGGKTYYADAVKGRFTISRDNAKNTLYLQMNSLRAEDTAVYYCAVDRLTKTIRPQYYGLWSWGQGTLVTVSS VL: DIVMTQTPLSLSVSPGETASISCRSSQSLLYSIGYNYLDWYLQKPGQSPQGLIYLGSKRASGVPDRFSGSGSGTDFTLRISRVEANDTGVYYCMQGLQSPLTFGQGTKLEIKR |
| 2.2 | 369 | 0.000126 | FJ2246MP10A10 (Fab, V domains shown) VH: EVQLVESGGDLVKPGGSLRLSCVASGFTFRDYAMTWVRQAPGKGLQWVSLISGSGGKTYYADAVKGRFTISRDNAKNTLYLQMNSLRAEDTAVYYCAVDRLTKTIRPQYYGLWVWGQGTLVTVSS VL: DIVMTQTPLSLSVSPGETASISCRSSQSLLYSIGYNYLDWYLQKPGQSPQGLIYLGSKRASGVPDRFSGSGSGTDFTLRISRVEAEDTGVYYCMQGLHSPLTFGQGTKLEIK |
| 2.1 | 146 | 0.000132 | FJ2246MP06D11 (Fab, V domains shown) VH: EVQLVESGGDLVKPGGSLRLSCVASGFTFRDYAMTWVRQAPGKGLQWVSLINGSGGKTYYADAVKGRFTISRDNAKNTLYLQMNSLRAEDTAVYYCAVDRLTKTIRPQYYGLWVWGQGTLVTVSS VL: DIVMTQTPLSLSVSPGETASISCRSSQSLLYSIGYNYLDWYLQKPGQSPQGLIYLGSKRASGVPDRFSGSGSGTDFTLRISRVEANDTGVYYCMQGLQSPLTFGQGTKLEIKR |
| 2.2 | 272 | 0.000126 | FJ2246MP06C02 (Fab, V domains shown) VH: EVQLVESGGDLVKPGGSLRLSCVASGFTFRDYAMTWVRQAPGKGLQWVSLINGDGSKVYYADAVKGRFTISRDNAKNTLYLQMNSLRAEDTAVYYCAVDRLTKTIRPQYYGLWVWGQGTLVTVSS VL: DIVMTQTPLSLSVSPGETASISCRSSQSLLYSIGYNYLDWYLQKPGQSPQGLIYLGSKRASGVPDRFSGSGSGTDFTLRISRVEANDTGVYYCMQGLQSPLTFGQGTKLEIKR |
| 2.1 | 251 | 0.000134 | FJ2246MP10G04 (Fab, V domains shown) VH: EVQLVESGGDLVKPGGSLRLSCVASGFTFRDYAMTWVRQAPGKGLQWVSLISGSGGKTYYADAVKGRFTISRDNAKNTLYLQMNSLRAEDTAVYYCAVDRLTKTIRPQYYGLWVWGQGTLVTVSS VL: DIVMTQTPLSLSVSPGETASISCRSSQSLLYSIGYNYLDWYLQKPGQSPQGLIYLGSKRASGVPDRFSGSGSGTDFTLRISRVEAEDTGVYYCMQGLQSPLSFGQGTKLEIK |
